Assays:
[1] = tested on: 4T1-ras (R) cells; assay: In vitro invasion assay (Matrigel-coated Transwells); type: cell-based, mouse; conditions: stable lipocalin 2 expression (RL) vs R cells; 16 hours
Procedure: FIG. 3 is a graph depicting the invasion migration of stable 4T1 clones using EV, R, and RL cells. Polycarbonate membranes of Transwells were coated with Matrigel® and cells were seeded. Sixteen hours later, cells were fixed, stained with Giemsa solution, and counted for each of the stable clones; EV, R, and RL.
Polycarbonate membranes (6.5 mm diameter, 8 μm pore size) of Transwells (Coster, N.Y.) were coated with Matrigel® (BD Biosciences, Franklin Lakes, N.J.) and cells were seeded (10^6 cells/100 μl) with DMEM including 0.1% serum. 16 hours later, cells were fixed, stained with Giemsa solution, and the upper surface of each membrane was scraped with a cotton swab. Cells that had reached the lower surface of the membrane (migrated cells) were counted in 20 random fields using a light microscope (×400).

[2] = tested on: VEGF; assay: Measurement of VEGF levels by ELISA in conditioned media of 4T1 cells; type: cell-based, mouse; conditions: RL vs R cells; conditioned media, 2 days
Procedure: Conditioned media of 4T1 cells were collected after 2 days of incubation. Murine VEGF levels were determined in duplicate using a commercially available sandwich ELISA kit (R&D Systems, Minneapolis, Minn.), with a affinity purified polyclonal antibody specific for mouse VEGF has been pre-coated onto a microplate. Results were compared with a standard curve of mouse VEGF with a lower detection limit of 7 pg/mL. A model 680 microplate-reader (Bio-Rad Laboratories, CA) was used to measure light intensity correlating with VEGF binding.

[3] = tested on: serum-response element (SRE); assay: SRE-luciferase assay; type: cell-based, mouse; conditions: RL cells; 48 hour incubation in serum free DMEM
Procedure: After transient transfection of the plasmids, cells were incubated for 20 hours in 10% FCS and luciferase activity in the cell lysates was determined using a luminometer normalized by sea-pansy luciferase activity under the control of the thymidine kinase promoter. The Dual-Luciferase Reporter Assay System was purchased from Promega (Madison, Wis.) (Hanai et al., J. Biol. Chem. 277:16464-16469, 2002).
For these experiments, EV and R cells were starved in DMEM without serum for 48 hours. During this time, half of the R cells were incubated with 50 μg/ml of lipocalin 2 protein with iron-loaded siderophore (R+Lipo:Sid:Fe), after which all cells were incubated with 10% FCS containing DMEM for 20 minutes and then harvested for western blotting with phosphospecific antibodies. Signaling events downstream of ERK activation were then monitored with a multi-copy serum-response element (SRE)-luciferase construct introduced into EV, R, and RL (FIG. 6B). For these experiments, an SRE-luciferase assay was performed on 4T1 clones after the 48 hour incubation in serum free DMEM. […] Just like R cells treated with exogenous protein (FIG. 6A), R cells infection with recombinant adenovirus carrying lipocalin 2, but not GFP, reduced SRE-luciferase activity, MEK, and ERK1/2 phosphorylation, without altering ras expression.
To localize the effect of lipocalin on ras-MAPK signaling, we utilized an adenovirus and expression plasmid encoding a constitutively active MEK (MEK-DD) (Murakami et al., Cell Growth Differ 10:333-342, 1999). MEK-DD adenoviral infection of EV cells led to increased SRE-luciferase activity (increased MAPK activity). […] RL cells in a 6-well plate were infected with an adenovirus carrying the MEK dominant active form (MEK-DD) and a Lac-Z adenovirus at the indicated multiplicities (MOI) in 2% serum including DMEM medium for 48 hours. Cells were then trypsinized, respread on 6-well plate at 5-10% confluency, and incubated with 10% serum including DMEM medium. Cell lysates were collected for western blotting 48 hours after the final plating (FIG. 6D). […]

[4] = tested on: 4T1 primary tumor; assay: Western blot of total cell lysate from 4T1 primary tumors; type: in vivo, Balb/c mice
Excerpt: 4T1 clones (EV, R and RL) were suspended in PBS and injected subcutaneously in the backs of Balb/c mice. 3 weeks later, primary tumor tissue was dissected, homogenized and the supernatant fluid was collected as total cell lysate. Western blot of total cell lysate from each primary tumor for the antigen is shown. GAPDH serves as a loading control. The E-cadherin, vimentin and GAPDH data is from Hanai et al., J. Biol. Chem. 280:13641-13647 (2005).
(§1) Cells were stained as described previously (Mammoto et al., Cancer Lett. 184:165-170, 2002) and images acquired with a Delta Vision system (Applied Precision, Issaquah, Wash.) equipped with an Axiovert 100 microscope (Carl Zeiss MicroImaging Inc., Shelton, Conn.) and a Photometrics 300 series scientific-grade cooled CCD camera, reading 12-bit images, and using the 63/1.4 NA plan-Neofluar objective. For immunoprecipitation and immunoblotting, tissues were weighed, diced, soaked in ice cold RIPA buffer with 1 mM phenylmethylsulfonyl fluoride (PMSF), 1 μg/ml Aprotinin, 1 mM Na3VO4, 1 nM NaF, homogenized on ice, centrifuged at 10,000 g for 10 minutes at 4° C., and the supernatant fluid collected as total cell lysate. Cultured cells were washed, scraped, and solubilized in a lysis buffer containing 20 mM Tris-HCl pH 7.5, 150 mM NaCl, 0.5% Triton X-100, 1% aprotinin, and 1 mM PMSF. After 20 minutes on ice, the cells were pelleted by centrifugation and the supernatants were used as a cell lysate. Cell lysates or immunoprecipitated cell lysates were separated by PAGE (NuPAGE® gels; Invitrogen, Carlsbad, Calif.), followed by electroblotting onto a polyvinylidenedifluoride membrane (PVDF). Protein bands were detected using SuperSignal® West Pico Chemiluminescent Substrate (Pierce Chemical Co., Rockford, Ill.) (Hanai et al., J. Cell. Biol. 158:529-539, 2002).
To determine whether lipocalin 2 could affect expression of anti-angiogenic factors in vivo, we injected EV, R, or RL cells subcutaneously in the backs of Balb/c mice and dissected the primary tumors at 3 weeks post-inoculation. As shown above and in Hanai et al., supra, E-cadherin and vimentin protein expression varied reciprocally in the three tumor types. We assessed the expression of VEGF and thrombospondin-1 (TSP-1) by western blot in each tumor tissue.

[5] = tested on: caveolin-1; assay: Western blot of caveolin-1 expression in 4T1 clones; type: cell-based, mouse; conditions: RL vs R cells
Excerpt: FIGS. 17A-17C show the involvement of caveolin-1 in the MET-inducing and anti-angiogenic function of lipocalin 2.
as §1, with “Cell lysates or immunoprecipitated cell lysates were separated by PAGE (NuPAGE® gels; Invitrogen, Carlsbad, Calif.), followed by electroblotting onto a polyvinylidenedifluoride membrane (PVDF).” left out

[6] = tested on: E-cadherin; assay: E-cadherin phosphorylation (immunoprecipitation and western blot); type: cell-based, mouse; conditions: R cells vs RL cells or R cells with inhibitor
Excerpt: as §1

[7] = tested on: colon cancer cells; conditions: ectopic expression of lipocalin 2; cited from earlier work

B1: lipocalin 2: human lipocalin 2 cDNA (HA tagged) in pcDNA3.1, stably expressed in 4T1-ras cells (RL clone); iron-siderophore binding protein (protein, UniProt P80188 21-198, looked up)
Neutrophil …: QDSTSDLIPAPPLSKVPLQQNFQDNQFQGKWYVVGLAGNAILREDKDPQKMYATIYELKEDKSYNVTSVLFRKKKCDYWIRTFVPGCQPGEFTLGNIKSYPGLTSYLVRVVSTNYNQHAMVFFKKVSQNREYFKITLYGRTKELTSELKENFIRFSKSLGLPENHIVFPVPIDQCIDG
modifications: HA tag
reversal of ras induced invasiveness in vitro [1]: approximately 76%
suppression of ras-induced VEGF secretion [2]: ≈ 7.5 fold
SRE-luciferase activity relative to R cells [3]: about half to two-thirds
E-cadherin in primary tumors ([4]; RL tumors vs R): more E-cadherin
vimentin in primary tumors ([4]; RL tumors vs R): less vimentin
TSP-1 protein in primary tumors ([4]; RL vs R and EV tumors, 3 weeks post-inoculation): returned in RL cells to the levels noted in EV cells
ras-induced increase of VEGF protein in primary tumors ([4]; RL vs R tumors, 3 weeks post-inoculation): completely abrogated
caveolin-1 expression [5]: rescued this loss of caveolin-1
E-cadherin phosphorylation [6]: markedly downregulated
liver metastasis [7]: inhibited liver metastasis

From patent US20090305963A1, “Lipocalin 2 for the Treatment, Prevention, and Management of Cancer Metastasis, Angiogenesis, and Fibrosis” (priority 2005, published 2009)
